In patent US20230272390A1, “COMPOSITIONS AND METHODS FOR HEMOGLOBIN PRODUCTION” (THE CHILDREN'S HOSPITAL OF PHILADELPHIA, priority 2020, published 2023):

What was measured:
[1] = tested on: motifs from the CHD4 promoter and enhancer sites; experiment: EMSA with COS-7 nuclear extracts and radiolabeled probes; format: binding, human; conditions: COS nuclear extracts, FLAG-tagged constructs, radiolabeled CHD4 motif probes
Method: Nuclear extracts were prepared from COS-7 cells transiently transfected with ZNF410 full-length and ZNF410 ZF1-5 plasmids. FuGENE® 6 (Promega) was used to transfect 5 μg of vector into 100 mm plates of COS-7 cells. A pcDNA3 empty vector was used as control. Cells were harvested 48 hours after transfection and nuclear extracts prepared (Andrews, et al. (1991) Nucleic Acids Res., 19:2499).
EMSAs were performed (Crossley, et al. (1996) Mol. Cell Biol., 16:1695-1705). The sense oligonucleotide was labelled with [γ-^32P]-adenosine triphosphate (Perkin Elmer) and boiled at 100° C. for 1 minute before addition of the antisense oligonucleotide and annealing of probe via slow cooling from 100° C. to room temperature. Probes were purified using Quick Spin Columns for radio-labelled DNA Purification (Roche). Nuclear extracts were harvested from COS-7 cells and samples and loaded on a 6% native polyacrylamide gel in TBE buffer (45 mM Tris, 45 mM boric acid, 1 mM EDTA). A ‘COS empty’ control lane was included to show binding of any background endogenous protein to the probe. […] Gels were run at 250 V for 1 hour, 45 minutes at 4° C. then dried under vacuum. […]
ZNF410 contains five tandem C2H2-type zinc fingers (ZFs) potentially involved in DNA binding (FIG. 5A). […] Direct DNA binding by full length (FL) ZNF410 to sequences found at the CHD4 gene was assessed by electrophoretic mobility shift assays (EMSAs). […]

endogenous ZNF410 = experiment: ChIP-seq in HUDEP-2 cells overexpressing HA-tagged ZF constructs; format: cell-based, human; conditions: overexpression in HUDEP-2 cells
Method: HUDEP-2 cells at Day 3 of differentiation, primary human CD34+ cells at Day 9 differentiation (similar to the polychromatic stage) and G1E-ER4 cells at 24 hours differentiation were crosslinked with 1% formaldehyde at room temperature for 10 min and quenched by the addition of glycine. ChIP experiments were performed (Hsu, et al. (2017) Mol. Cell., 66:102-116). ZNF410 (Proteintech, Cat. #14529-1-AP), HA (Sigma, Cat. #11815016001) and H3K27ac (Abcam, Cat. #ab4729) antibodies were used for ChIP. ChIP-seq libraries were prepared using TruSeq® ChIP-seq Sample preparation Kit (part #IP-202-1012) according to the manufacturer's instructions. Reads were aligned with Bowtie2 local alignment to allow the mapping of indels (Langmead, et al. (2012) Nat. Methods 9:357-359). […]
Reads were aligned against reference genome hg38 for human and genome mm10 for mouse using Bowtie2 (v2.2.9) and the default parameters. […] Reads aligned to mitochondria, random contigs and ENCODE blacklisted regions were also removed for downstream analysis. Genome coverage files were generated and normalized to 1 million reads per library using bedtools (v2.25.0), and then converted to bigwig format for visualization using the UCSC Toolkit. […] Read density plot and heatmap around selected peaks were generated using Deeptools (version 2.5.7, “computeMatrix” and “plotHeatmap”). […]

B1: ZF1-5: fragment of human ZNF410 comprising five zinc finger domains ZF1-5 (residues 217-366); dominant-negative when overexpressed (protein)
chain: KKLKCTVEGCDRTFVWPAHFKYHLKTHRNDRSFICPAEGCGKSFYVLQRLKVHMRTHNGEKPFMCHESGCGKQFTTAGNLKNHRRIHTGEKPFLCEAQGCGRSFAEYSSLRKHLVVHSGEKPHQCQVCGKTFSQSGSRNVHMRKHHLQLG
modifications: left off: small tags and cut ends
notes: fragment of human ZNF410 comprising five zinc finger domains ZF1-5 (residues 217-366); dominant-negative when overexpressed
DNA binding in EMSA [1]: strong DNA binding | interference with endogenous ZNF410 binding (endogenous ZNF410; ChIP-seq): markedly interfered | chromatin occupancy (endogenous ZNF410; HA ChIP-seq): bound to the CHD4 regulatory regions and to the other ZNF410 targets
